Measured values: patent CN116355095A
Where two headings read alike, the source gives them in different places.

What was measured:
[1] = target: 恒河猴TIGIT-mFc (rhesus monkey; mouse); assay: ELISA on coated RhTIGIT-mFc
[2] = target: 人TIGIT-hFc (human) (UniProt Q495A1); assay: blocking ELISA: Bio-CD155 on coated TIGIT-hFc
[3] = target: 人TIGIT-hFc (human) (UniProt Q495A1); assay: blocking ELISA: Bio-CD155 on coated TIGIT-hFc; remark: listed apart in the source
[4] = target: T1, CHO-K1-T1001细胞表达的人TIGIT (human) (UniProt Q495A1); assay: cell ELISA on fixed hTIGIT+ CHO-K1 cells
T1 sequence (looked up): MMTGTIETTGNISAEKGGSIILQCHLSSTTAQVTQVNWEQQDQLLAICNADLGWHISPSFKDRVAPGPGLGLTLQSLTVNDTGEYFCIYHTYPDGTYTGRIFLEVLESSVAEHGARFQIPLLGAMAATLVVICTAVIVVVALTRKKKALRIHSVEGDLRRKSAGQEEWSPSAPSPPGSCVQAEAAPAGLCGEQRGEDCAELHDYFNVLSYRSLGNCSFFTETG

[5] = target: T1, CHO-K1-T1001细胞表达的人TIGIT (human); assay: cell ELISA on fixed hTIGIT+ CHO-K1 cells; remark: listed apart in the source
[6] = target: T2, 人TIGIT重组蛋白 (hTIGIT; TIGIT-hFc 或 TIGIT-his) (human) (UniProt Q495A1); assay: ELISA on coated hTIGIT
T2 sequence (looked up): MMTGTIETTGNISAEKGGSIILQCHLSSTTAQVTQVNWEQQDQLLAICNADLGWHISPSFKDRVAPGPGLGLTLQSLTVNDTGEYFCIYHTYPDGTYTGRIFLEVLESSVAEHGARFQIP

[7] = target: T2, 人TIGIT重组蛋白 (hTIGIT; TIGIT-hFc 或 TIGIT-his) (human); assay: ELISA on coated hTIGIT; remark: listed apart in the source

Chain of 恒河猴TIGIT-mFc (rhesus monkey; mouse) (P01863 other isoform, or with tags, fused parts or gaps): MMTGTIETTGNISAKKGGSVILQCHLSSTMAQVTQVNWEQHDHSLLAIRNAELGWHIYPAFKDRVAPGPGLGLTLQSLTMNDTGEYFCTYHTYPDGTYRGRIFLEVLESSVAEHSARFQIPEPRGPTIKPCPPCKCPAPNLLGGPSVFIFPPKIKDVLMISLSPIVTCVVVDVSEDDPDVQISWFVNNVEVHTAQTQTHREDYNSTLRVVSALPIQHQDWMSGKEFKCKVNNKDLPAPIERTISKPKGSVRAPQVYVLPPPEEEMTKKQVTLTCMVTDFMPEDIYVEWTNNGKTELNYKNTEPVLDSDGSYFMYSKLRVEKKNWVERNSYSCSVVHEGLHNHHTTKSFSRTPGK

EC50 [1]: 0.243 nM
IC50 [2]: 1.19 nM
IC50 [3]: 3.3 nM
EC50 [4]: 0.138 nM
EC50 [5]: 0.0268 nM
EC50 [6]: 0.462 nM
EC50 [7]: 1.13 nM
Substance: 阳性对照抗体Ref1 (罗氏RG6058) (antibody)
